Test results taken from the supplement of paper PMC9942255.
“And” between values parts separate entries of the source, which are not always exact repeats. Equal entries are not always repeated.

System: Bacillus subtilis DB104 (SP-AmyQ fusion secretion)
Experiment: AmyQ secretion efficiency, weighted average sort bin (1 = best secretion, 10 = worst) (bin number (weighted average, 1-10)); higher = lower secretion efficiency
How it was run: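 The secretion score gives the average bin number weighted by read frequency and normalised to beads per bin, with low-abundance sequences excluded. Bins were 10 equally populated green/red fluorescence ratio fractions of occupied ~65 nL alginate beads, sorted by large-particle flow cytometry. The beads held fluorescein-starch and about 0.3 cells each of an amyE-integrated B. subtilis DB104 library fusing designed signal peptides to mature AmyQ, and they were grown about 13 h at room temperature and stained with nile red before sorting and Illumina sequencing.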

## MKRLLVSLRVWMVFLMPDRKTAAAAVY
  AmyQ secretion efficiency: 6.21

## MKRLRRKRKKGIMLLTFAPSAFAKQD
  AmyQ secretion efficiency: 7.07

## MKRLRRKRRRWMVFLMNWVTPDRKTAAAAVY
  AmyQ secretion efficiency: 6.85

## MKRLTLVCSIVFILEDLFYDLDIGTIPIQDLPVYEASAKTA
  AmyQ secretion efficiency: 7.06

## MKRLTLVCSIVFILFILFYDKDEASAKTA
  AmyQ secretion efficiency: 1.77

## MKRLTLVCSIVFILFILFYDLKIGTDEASAKTA
  AmyQ secretion efficiency: 4.35

## MKRLTLVCSIVFILFILFYDLKIGTIPIQDLPVYEESAKTA
  AmyQ secretion efficiency: 5.76

## MKRLTLVCSIVFILRKLFYRLKIGTIPIQKLPVYKASAKTA
  AmyQ secretion efficiency: 6.99

## MKRMCSICCAAVLLAGGAAQAEAV
  AmyQ secretion efficiency: 3.05

## MKRMIRTLPLLIVCLAFSSFSASARAASE
  AmyQ secretion efficiency: 2.17

## MKRMIVRMKRPSLIVCLAFSSFSASARAASE
  AmyQ secretion efficiency: 6.12

## MKRMIVRMTKKRRIVCLAFSSFSASARAASE
  AmyQ secretion efficiency: 5.68

## MKRMIVRMTKRKRRRCLAFSSFSASARAASE
  AmyQ secretion efficiency: 8.6

## MKRMIVRMTLMMTLPLLIVCLAFSSFSASARAASE
  AmyQ secretion efficiency: 2.08

## MKRMIVRMTLPLLIVCLAFSDFSASARAASE
  AmyQ secretion efficiency: 2.61

## MKRMIVRMTLPLLIVCLAFSKDSASARAASE
  AmyQ secretion efficiency: 1.93

## MKRMIVRMTLPLLIVCLAFSKKSASARAASE
  AmyQ secretion efficiency: 7.39

## MKRMIVRMTLPLLIVCLAFSSFSASAPVGARAASE
  AmyQ secretion efficiency: 2.02

## MKRMIVRMTLPLLIVCLAFSSFSASARAASF
  AmyQ secretion efficiency: 1.55

## MKRMIVRMTLPLLIVCLAFSSFSASARAEEE
  AmyQ secretion efficiency: 3.68

## MKRMIVRMTLPLLIVCLAFSSFSASARCASE
  AmyQ secretion efficiency: 4.35

## MKRMIVRMTLPLLIVCLAFSSFSASARNASE
  AmyQ secretion efficiency: 3.81

## MKRMIVRMTLPLLIVCLAFSSFSASARVASE
  AmyQ secretion efficiency: 4.86

## MKRMIVRMTLPLLIVCLAFSSFSASTRAASE
  AmyQ secretion efficiency: 2.26

## MKRMIVRMTLPLLIVCLAFSTSFSASARAASE
  AmyQ secretion efficiency: 2.38

## MKRMIVRMTTPLLIVCLAFSSFSASARAASE
  AmyQ secretion efficiency: 2.03

## MKRNIFNNINLSLLSTLLIGIMLLTFAPSAFAKQD
  AmyQ secretion efficiency: 2

## MKRNLTITMFILVLSFLSIIVAYPIQTNASPM
  AmyQ secretion efficiency: 5.49

## MKRQCYWTYQSSRQLVLLPGKALGAVD
  AmyQ secretion efficiency: 8.11

## MKRQGKSKSYAAVILSGWFIADHQTHSQEM
  AmyQ secretion efficiency: 7.16

## MKRQKQKASLVLFAVVFVFAVKGAPAKAETH
  AmyQ secretion efficiency: 2.05

## MKRQKQKYLLLGILCSAAVFLIGAPSRALGAEV
  AmyQ secretion efficiency: 3.43

## MKRQRLLVSLRVWMVFLMNWVTPDRKTAAAAVY
  AmyQ secretion efficiency: 6.95

## MKRQSQTLSFLSIIVAYPIQTNASPM
  AmyQ secretion efficiency: 8.43

## MKRRFMKASLVLFAVVFVFAVKGAPAKAETH
  AmyQ secretion efficiency: 2.6

## MKRRKKKVLTGSVLSLGLLVSASPAFATSP
  AmyQ secretion efficiency: 1.34

## MKRRKNVCLTALLSVLLVAGSVPFHAEAKKP
  AmyQ secretion efficiency: 2.59

## MKRRKRRYLLLGILCSAAVFLIGAPSRALGAEV
  AmyQ secretion efficiency: 1.61

## MKRRKTAYLLLGILCSAAVFLIGAPSRALGAEV
  AmyQ secretion efficiency: 2.77

## MKRRKVLTGSVLSLGLLVSASPAFATSP
  AmyQ secretion efficiency: 2.61

## MKRRLSTLLIGIMLLTFAPSAFAKQD
  AmyQ secretion efficiency: 1.82

## MKRRRKPYTKKLALGAALTIAPLSFASAEEN
  AmyQ secretion efficiency: 6.27

## MKRRRQRQTTLPLLIVCLAFSSFSASARAASE
  AmyQ secretion efficiency: 3.83

## MKRRRRKIWTIILGALLVCCIAVAYTLTKSQAGASSS
  AmyQ secretion efficiency: 5.49

## MKRRRRKLLSTLLIGIMLLTFAPSAFAKQD
  AmyQ secretion efficiency: 1.81

## MKRRRRPMRLALGAALTIAPLSFASAEEN
  AmyQ secretion efficiency: 5.86

## MKRRRRRFILVLSFLSIIVAYPIQTNASPM
  AmyQ secretion efficiency: 2.07

## MKRRRSIFITCLLITLLTMGGMIASPASAAGT
  AmyQ secretion efficiency: 2.4

## MKRRTRYKKQVVGILLSLAFVLFVFSFSERHE
  AmyQ secretion efficiency: 6.68

## MKRSIFITCLLITLLTMGGMIASPASAAGT
  AmyQ secretion efficiency: 2.08

## MKRSIMLSNIIILLVSLRVWMVFLMNWVTPDRKTAAAAVY
  AmyQ secretion efficiency: 6.91

## MKRSINSIFITCLLITLLTMGGMIASPASAAGT
  AmyQ secretion efficiency: 1.88

## MKRSIRTGTYCLLITLLTMGGMIASPASAAGT
  AmyQ secretion efficiency: 3.22

## MKRSISIFITCLLITLLKRKGMIASPASAAGT
  AmyQ secretion efficiency: 5.06

## MKRSISIFITCLLITLLKRKKRRASPASAAGT
  AmyQ secretion efficiency: 6.57

## MKRSISIFITCLLITLLTMGGMIASPASAAGT
  AmyQ secretion efficiency: 3.79 and 2.48 and 2.42

## MKRSISIFITCLLITLLTMGGMIASPASAEDE
  AmyQ secretion efficiency: 2.08

## MKRSISIFITCLLITLLTMGGMIASPASEAGT
  AmyQ secretion efficiency: 4.1

## MKRSISIFITCLLITLLTMGGMIASPASIAGT
  AmyQ secretion efficiency: 4.57

## MKRSISIFITCLLITLLTMGGMIASPASTAGT
  AmyQ secretion efficiency: 4.46

## MKRSISIFITCLLITLLTMGGMIASPRSAAGT
  AmyQ secretion efficiency: 2.42

## MKRSISIFITCLLITLLTMGGMIASPTSAAGT
  AmyQ secretion efficiency: 2.97

## MKRSISKRKRCKKITLLTMGGMIASPASAAGT
  AmyQ secretion efficiency: 6.02
